Assay results: the nanobody polyreactivity screen of Harvey et al. (2022)

test: yeast display, Sf9 membrane polyspecificity reagent, FACS + sequencing; frameworks hold sequencing errors
Summary of the method: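 Synthetic nanobody libraries on Saccharomyces cerevisiae BJ5465 were galactose-induced for 36–48 hours, stained 1 hour at 4 °C with 10% biotinylated, detergent-solubilized Sf9 membrane reagent and enriched on streptavidin microbeads. FACS then separated cells into low and high (top ~1%) gates by anti-HA (expression) and streptavidin (reagent binding) fluorescence. Genes were colony-PCR amplified, MiSeq 2 × 250 sequenced and CDR-length filtered. A clone's polyreactivity label is that of its gate of origin.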

| Sequence | polyreactivity (PSR sort gate) |
| --- | --- |
| QVQLVESGVGLVQAGGSLRLSCAASGFIFKRYAMGWYRQAPGKERELVATISNSGGRTYYADSVKWRFTISRDNAKNTVYLQMNSLKPEDTAVYYCAALPFWWGGYWGQGTQVTVSS | high polyreactivity |
| QVQLVESGVGLVQAGGSLRLSCAASGFIFWLYAMGWYRQAPGKERELVAGITRGGGSTYYADSVKRRFTISRDNAKNTVYLQMNSLKPEDTAVYYCAADAWSSYLDRPFDYWGQGTQVTVSS | high polyreactivity |
| QVQLVESGVGLVQAGGSLRLSCAASGFTFDDNAMGWYRQAPGKERDFVASITNSTGSTYADSVKGRFTISRDNAKNTFYLQMNSLKPEDTAVDYCAVDNISNWAVENDYWGQGTQVTVSS | low polyreactivity |
| QVQLVESGVGLVQAGGSLRLSCAASGGIFGKYVMGWSRQAPGKERELVAAITLRGGSTYYADSVKGRFTISRDNAKNTVYLQMNSLKPEDTAVYYCPRRAYQNWYNYWGQGTQVTVSS | high polyreactivity |
| QVQLVESGVGLVQAGGSLRLSCAASGIFYGYAMGWYRQAPGKERELVAAISSGGSTYYADSVKGRFTISRDNAKNTVYLQMISLNPEDTAVYYCAAGKKRPGWTFPRYYWGQGTQVTVSS | high polyreactivity |
| QVQLVESGVGLVQAGGSLRLSCAASGIIFASNGMGWYRQAPGKERELVAAISSGGSTNYADSVKGRFTISRDNAKNTVYLQMNSLKPEDTAVYYCAADRWNREYDYWGQGTQVTVSS | low polyreactivity |
| QVQLVESGVGLVQAGGSLRLSCAASGLIFFFYAMGWYRQAPGKERELVASISGGGITYYADSVKGRFTISRDNAKNTVYLQMNSLKPEDTAVIKNDYWGQGTQVTVSS | low polyreactivity |
| QVQLVESGVGLVQAGGSLRLSCAASGLIFGRNVMGWYRQAPGKERVLVAAISWSGGRTYYADSVKGRFTISRDNAKNTGYLQMNRLKPEDTAVDYCATDRSTRTYRSPYDYWGQGTQVTVSS | high polyreactivity |
| QVQLVESGVGLVQAGGSLRLSCAASGLIFYHNAMGWYRQAPGKERELVAAISRSGGRTYYADSVKGRFTISRDNAKNTVYLQMNSLKPEDSAVYYCAVYRSSDFDYWGQGTQVTVSS | high polyreactivity |
| QVQLVESGVGLVQAGGSLRLSCAASGLTFDYNAMGWYRQAPGKERELVARISRSGGTTYYADSVKGRFTISRDNAKNTVYLQMNSLKPEDTAVYYCAAERYYVGAYGYWGQGTQVTVSS | high polyreactivity |
| QVQLVESGVGLVQAGGSLRLSCAASGRIFAGYAMGWYRQAPGKERELVATISSGGSTYYADSVKGRFTISRDNAKNTVYLQMNSLKPEDTAVYYCAAEYGTRQYSSYYKLFNYWGQGTQVTVSS | low polyreactivity |
| QVQLVESGVGLVQAGGSLRLSCAASGRIFHYNAMGWYRQAPGKERELVAAISTGGSTNYADSVKGRFTISRDNAKNTVYLQMNSLKPEDTAVYYCAADRTLSYEYWGQGTQVTVSS | low polyreactivity |
| QVQLVESGVGLVQAGGSLRLSCAASGRIFTLNAMGWYRQAPGKERELFAGISRTGGSTYYADSVKVRFPISRDNAKNTVYLQMNSLKPEDTAVYYCAAAGFRRQPGAGAYYYWGQGTQVTVSS | high polyreactivity |
| QVQLVESGVGLVQAGGSLRLSCAASGRNFAYYAMGWYRQAPGKERELVAAISSGGTTNYADSVKGRFTISRDNAKNTVYLQMNSLKPDDTAVYDCNADGWRRSRQYYYWGQGTQVTVSS | low polyreactivity |
| QVQLVESGVGLVQAGGSLRLSCAASGRTFFNYVMGWYRPAPGKERELVAAISRSGGSTYYADSVKGRFTLSRDNAKNTVYLQMNSLKPEDTAVYYCAADKYYEYYWGQATQVTVSS | high polyreactivity |
| QVQLVESGVGLVQAGGSLRLSCAASGRTFGYYAMGWYRLAPGKERELVAAISSGGSTNYADSVKGRFTISRDNAKNTVYLQMNSLKPEDTAVYYCAAKAWYYPGRRNYYQYYYWGQGTQVTVSS | high polyreactivity |

| Sequence | polyreactivity (PSR sort gate) |
| --- | --- |
| QVQLVESGVGLVQAGGSLRLSCAASGRTFPPYAMGWYRQAPGKERELVAAISSDGSTYADSVKGRFTISRDNAKNTVYLQMNSLKPEDTAVYYCAVDYTYSYRKHFGHILYSWGQGTQVTVSS | low polyreactivity |
| QVQLVESGVGLVQAGGSLRLSCAASGRTFPSYNMGWYRQAPGKERELVAAITWTGGSTYYSDSVKGRFTISRDNAKNTVYLQMNSLKPEDTAVYYCATEEVYGQGNYWGQGTQVTVSS | low polyreactivity |
| QVQLVESGVGLVQAGGSLRLSCAASGRTFRANAMGWYRQAPGKERELVAAITWDGGSTYYADSVKGRFTISRDNAKNTVYLLMYSLKPEDTAVYYCNTYPYLWGQGTQVTLSS | low polyreactivity |
| QVQLVESGVGLVQAGGSLRLSCAASGRTFVYAMGWYRQAPGKERELVAAISYNGGSTYYADSVKGRFTISRDNAKNTVYLQMNSLKPEDTAVYYCAADISVGRYGDMDYWGQGTQVTVSS | low polyreactivity |
| QVQLVESGVGLVQAGGSLRLSCAASGSIFDANTMGWYRQAPGKERELVAAITGSGASTYYADSVKGRFTISRDNAKNTVYLQMNSLKPEDSAVYYCAARRYTSYYKDGWYAYYYWGQGTQVTVSS | high polyreactivity |
| QVQLVESGVGLVQAGGSLRLSCAASGSIFGRNAMGWYRQAPGKERELVARISYIGGSTYYADSVKGRFTISRDNEKNTVYLQMNSLKPEDTSVYYCAKRYGFGYKRMDYWGQGTQVTVSS | low polyreactivity |
| QVQLVESGVGLVQAGGSLRLSCAASGSIFIRNAMGWYRQAPGKERELVAAISGSGSSTYYADSVKGRFTISRDTAKNTVYLQMNILKPEDTAVYYCNTDRTHSYQYGGYDYWGQGTQVTVSS | low polyreactivity |
| QVQLVESGVGLVQAGGSLRLSCAASGSIFLTYDMGWYRPAPGKERELVAAITGSGDSTYYADSVKGRFTISRDNAKNTVYLQMNSLKPEDTAVYYCNTLVGVDFWLVDYWGQGTQVTLSS | low polyreactivity |
| QVQLVESGVGLVQAGGSLRLSCAASGSIFQSYDMGWYRQAPGKERELVAAISWSGSTTYYADSVKGRFTISRDNAKNTVYLQMNSLKPEDTAVYYCAVDSNPPDWWAVIYGFWGQGTQVTVSS | low polyreactivity |
| QVQLVESGVGLVQAGGSLRLSCAASGSIFVNYAMGWYRQAPWKERELVAAITLRGGSTFYADSVKGRFTISRDNAKNTVYLQMHSLKPEDTAVYYCAASSLRYRAYKSLFDFWGQGTQVTVSS | low polyreactivity |
| QVQLVESGVGLVQAGGSLRLSCAASGSSFTSNAMGSYRQAPGKEREFVAAISVGGGITYYADSVKGRFTISRDNAKNTVYLQMYSLKPEDTAVYYCAADGEYPHSEDFEYWGQGTQVTVSS | low polyreactivity |
| QVQLVESGVGLVQAGGSLRLSCAASGSTFFIYPMGLYRQAPGKERELVAAIRSGGTYYADSVKGRFTISRDNAKNTVYLQMNSLNPEDTAVYYCAARTRGFRYYYWGQGSQVTVSS | high polyreactivity |
| QVQLVESGVGLVQAGGSLRLSCAASGSTFGGYAMVWYRQAPGKESELVAAIYSSGGNTNYADSVKGRFTISRDNAKNTVYLQMNSLIPEDTAVYYCARDTQLPHFYGRVSEYDYWGQGTQVTVSS | low polyreactivity |
| QVQLVESGVGLVQAGGSLRLSCAASGSTFYPNAMGWYRQAPRKERELVAAISRGTRTKYADSVKGRFTISRDNAKNTVYLQMNSLKPEDTAVYYCAADTGTGLDWGQGTQVTVSS | high polyreactivity |
| QVQLVESGVGLVQAGGSLRLSCAASGSTFYSNAMGWNRQAPGKERELVASISWSSGSTYYADSVKGRFTISRDNAKNTVYLQMNSLKPEDTAVYYCATDAGGPYRFGYWGQGTQVTVSS | low polyreactivity |
| QVQLVESGVGLVQAGGSLRLSCAASGSTFYYYAMGWYRQAPGKERELVAAISWSGASTFYADSVKGRFTISRDNAKITVYLQMNSLKPEDTAVFYCAARYYGQPQYQPLYYWGQGTQVTVSS | high polyreactivity |
